Measurements as given in article PMC4525183, “Snf1/AMP-activated protein kinase activates Arf3p to promote invasive yeast growth via a non-canonical GEF domain” (Nature Communications, 2015).

T1: GST-Snf1-C (a.a. 311–633) (S. cerevisiae, UniProt P06782 311-633)
T1 construct: Snf1p, S. cerevisiae, C-terminal regulatory domain, a.a; 311–633; Vector pGEX4T-1; also called C-terminal regulatory domain of Snf1p; source: E. coli BL21 (DE3), purified (glutathione-Sepharose 4B)
T1 sequence (looked up): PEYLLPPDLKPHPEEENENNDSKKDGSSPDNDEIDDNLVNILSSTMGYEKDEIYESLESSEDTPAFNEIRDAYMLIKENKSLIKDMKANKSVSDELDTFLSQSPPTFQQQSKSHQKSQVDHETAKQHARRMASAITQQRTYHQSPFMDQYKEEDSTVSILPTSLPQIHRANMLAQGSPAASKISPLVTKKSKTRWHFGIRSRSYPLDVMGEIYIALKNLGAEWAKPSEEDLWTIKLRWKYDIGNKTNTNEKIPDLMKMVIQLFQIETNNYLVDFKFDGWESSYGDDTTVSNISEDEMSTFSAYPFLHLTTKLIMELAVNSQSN

B1: His-Arf3^T31N (natural protein, S. cerevisiae, UniProt P40994 1-183, looked up)
chain: MGNSISKVLGKLFGSKEMKILMLGLDKAGKNTILYKLKLNKIKTSTPTVGFNVETVTYKNVKFNMWDVGGQQRLRPLWRHYFPATTALIFVIDSSARNRMEEAKEELYSIIGEKEMENVVLLVWANKQDLKDAMKPQEVSDFLELEKNLKNQPWCVIGSNALSGQGLVEGLSWISNNTNVPKK
notes: Arf3p, S. cerevisiae; T31N; plasmid pET32a-ARF3 (T31N); pET32a usually adds thioredoxin, His and S tags before the insert

Columns and labels:
His-Arf3^T31N = molecular target: B1; test: pull-down; GST fusions on glutathione-Sepharose 4B beads, His-tagged protein in solution (His-Arf3 loaded with GDP or GTPγS); 50 mM Tris-HCl pH 7.5, 150 mM NaCl, 1% Triton X-100, 1 mM DTT, 10 mM MgCl2; 1 h, 4 °C; anti-His blot; conditions: both partners purified
[1] = molecular target: T1, GST-Snf1-C (a.a. 311–633); test: as above; conditions: both partners purified

binding result (His-Arf3^T31N) | binding result [1] | Binder
binds | – | GST-Snf1-C1 (a.a. 392–518) (domain or fragment, S. cerevisiae, UniProt P06782 392-518, looked up, Snf1p, S. cerevisiae, a.a; Vector pGEX4T-1; source: E. coli BL21 (DE3), purified (glutathione-Sepharose 4B)) LIKDMKANKSVSDELDTFLSQSPPTFQQQSKSHQKSQVDHETAKQHARRMASAITQQRTYHQSPFMDQYKEEDSTVSILPTSLPQIHRANMLAQGSPAASKISPLVTKKSKTRWHFGIRSRSYPLDV
– | binds | B1
